One test relates to GST-REF2-I. As to the kind of experiment: GST-REF2-I pull down of 35S-radiolabelled ICP27 fragments. The test is classed as binding, murine. The conditions noted are these: 35S-radiolabelled protein from rabbit reticulocytes, glutathione beads, RB100 buffer pH 7.5, 10 µg/ml RNAse A; SDS-PAGE, PhosphoImage. The text has this:
To confirm the position of REF-binding domains within ICP27 and ORF57 and to minimise the size of constructs for more detailed NMR mapping, a series of fragments derived from HSV-1 ICP27 were screened for binding to GST-REF2-I using pull down assays (Fig. 1). […] The REF-binding fragment of ORF57 aa 8–120 identified previously similarly interacted with the same fragments of REF (Fig. 1D).
Figure 1 Identification of regions for the interactions between REF and ICP27/ORF57. (A) Subdivision of ICP27, ORF57 and REF2-I in fragments. […] (C) Fusion of the ICP27^103–138 peptide to GST allows a specific pull down of REF, REF^1–155 (NM) and REF^54–155 (Δ53) and a very weak pull down of the REF^1–70 (N); no interaction is detected with the control Ras protein. (D) Same pull down assay as panel C but using GST fusion of ORF57 aa 8–120 in place of ICP27.
GST or GST protein fusions were first immobilised on 30 µl slurry glutathione-coated beads (GE Healthcare) before 8 µl ^35S-radiolabelled proteins synthesised in rabbit reticulocytes (Promega) were added to the binding reactions in RB100 buffer (25 mM HEPES pH 7.5/100 mM KOAc/10 mM MgCl2/1 mM DTT/0.05% Triton X-100/10% glycerol) in presence of 10 µg/ml RNAse A. Washed and eluted protein complexes were resolved on 15% SDS-PAGE stained with Coomassie blue and analysed by PhosphoImage. […]

The test system of test [1] is REF^156–218 (REF2-I C-terminal domain). Description: NMR 1H-15N correlation spectra of 15N-labelled REF^156–218 with added viral protein constructs. It is filed as binding, murine. To be noted: 2-fold excess of viral construct; 15N-HSQC.

This note sets out measurements from article PMC3017119, “Structural Basis for the Recognition of Cellular mRNA Export Factor REF by Herpes Viral Proteins HSV-1 ICP27 and HVS ORF57” (PLoS Pathogens, 2011).

B1: ICP27^1–138: recombinant fragment aa 1–138 of HSV-1 ICP27 (protein)
chain: MATDIDMLIDLGLDLSDSDLDEDPPEPAESRRDDLESDSSGECSSSDEDMEDPHGEDGPEPILDAARPAVRPSRPEDPGVPSTQTPRPTERQGPNDPQPAPHSVWSRLGARRPSCSPEQHGGKVARLQPPPTKAQPAR
modifications: 35S-radiolabelled
notes: recombinant fragment aa 1–138 of HSV-1 ICP27
With B1, the “Binding to GST-REF2-I in pull down” value in the test on GST-REF2-I is listed as “essentially the same as that of the full-length protein”. Further, the “Changes in 1H-15N correlation spectra of 15N-REF^156–218 upon addition” value in test [1] is listed as “No significant changes”.
